These results are taken from the supplement of paper PMC12764529.

± gives the half width of the 95% confidence interval.

Series [1] in a line: folding stability dG unfold from chymotrypsin proteolysis; higher = more stable. Summed up: (§1)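 Mini-proteins designed to be under 80 residues and free of cysteine were carried in a PA-tagged cDNA display construct and digested with trypsin and with chymotrypsin. Each protease was applied at 11 threefold-diluted concentrations, alongside a no-protease condition, before sequencing. K50 came from Bayesian fitting of the sequencing counts, and unfolding free energy was obtained by comparing it with a sequence-predicted unfolded-state K50 and a shared folded-state K50, for each protease separately or for both together. Designs were retained only if their AlphaFold2 dimer inter-PAE exceeded 15.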

Series [2] in a line: folding stability dG unfold from trypsin proteolysis; higher = more stable. Summed up: as §1
Series [3] is described as follows: folding stability dG unfold (combined trypsin and chymotrypsin); higher = more stable. Summed up: as §1

Regarding “SAGGSAGGSAMDVFTAALNNKELEEAIKKASPDEKEIEIELPGGKKIRIFRTDDGGYIFEPSAGGSAGGSAG [r3_124_TrMRF]”, the “folding stability dG unfold” value in series [1] turned out to be 1.32 ± 0.11 kcal/mol; in series [2], 1.8 ± 0.055 kcal/mol; in series [3] it was 1.52 ± 0.11 kcal/mol.

On to “SAGGSAGGSAMETVYIPKEEVEKDPEKLEEIKEKLKKELEEKGKKVEFKEDPNGGYTITVESAGGSAGGSAG [r3_75_JUSTAS]”, for which the “folding stability dG unfold” value in series [1] was 0.855 ± 0.029 kcal/mol; in series [2], 0.343 ± 0.054 kcal/mol; in series [3], 0.663 ± 0.13 kcal/mol.

Turning to “SAGGSAGGSAMETYEIEVNGKLITITRSEDGTYKITDKDTGKTITIPAEDLKKLKPGDKLLSAGGSAGGSAG [r3_256_TrROS_Hall]”, the “folding stability dG unfold” value was determined as 2.18 ± 0.036 kcal/mol in series [1], 1.79 ± 0.078 kcal/mol in series [2] and 2.15 ± 0.14 kcal/mol in series [3].

“SAGGSAGGSAMFPDNTTVIEKEVPSSDVESAIEEIKKEYGVENYEVTTEPRPGTVKITVTIKPSAGGSAGGS [r12_929_JUSTAS]”: the results for the “folding stability dG unfold” value in series [1], in series [2] and in series [3] were 1.34 ± 0.038 kcal/mol, 1.65 ± 0.064 kcal/mol and 1.53 ± 0.093 kcal/mol, respectively.

For “SAGGSAGGSAMIEDPATGRVYELDPSVPTVTVYEKTEGEGGEVVEKGVVEADPANPEKALLESAGGSAGGSA [r18_448_JUSTAS]”, the figures for the “folding stability dG unfold” value in series [1], in series [2] and in series [3] were 0.826 ± 0.073 kcal/mol, 0.45 ± 0.048 kcal/mol and 0.716 ± 0.069 kcal/mol, respectively.

Regarding “SAGGSAGGSAMIGGGEDGNLVFLVTEDGKPLVLVAPPDEIKKILEELGIKDVVVVKPLPELSAGGSAGGSAG [r3_141_TrMRF]”, the “folding stability dG unfold” value in series [1] was -0.0844 ± 0.13 kcal/mol; in series [2], 1.18 ± 0.043 kcal/mol; in series [3], 0.762 ± 0.1 kcal/mol.

Consider “SAGGSAGGSAMITYTAPGGTPVTVTPDPVTGTLSATFPDGSVITAPVVGDTIPVTVVPPAAVSAGGSAGGSA [r18_405_JUSTAS]”, for which the “folding stability dG unfold” value in series [1] is -0.295 ± 0.11 kcal/mol; in series [2], 1.37 ± 0.023 kcal/mol; in series [3], 0.851 ± 0.042 kcal/mol.

Consider “SAGGSAGGSAMKEIKIELTYEDEEEAEKKAKEEKEKIKKELEEKGIKVEKITVEIHPPYHHSAGGSAGGSAG [r3_463_JUSTAS]”, for which the “folding stability dG unfold” value is 1.12 ± 0.067 kcal/mol in series [1], -0.647 ± 0.095 kcal/mol in series [2] and 0.796 ± 0.14 kcal/mol in series [3].

On to “SAGGSAGGSAMKIEIEKTEDTIKVRIKRKDGKEIEIEIPKENMSLEEIKKLAEELGIEKVEPSAGGSAGGSA [r18_83_TrROS_Hall]”, for which the results for the “folding stability dG unfold” value in series [1], in series [2] and in series [3] were 1.63 ± 0.073 kcal/mol, 1.49 ± 0.17 kcal/mol and 1.6 ± 0.17 kcal/mol, respectively.

Turning to “SAGGSAGGSAMKIPPGETVEEVELSFLPNGEIILKKTTITKKGNTTTVETEVKIVKPDVPLSAGGSAGGSAG [r3_49_JUSTAS]”, the entries for the “folding stability dG unfold” value in series [1], in series [2] and in series [3] were 0.701 ± 0.067 kcal/mol, 0.877 ± 0.027 kcal/mol and 0.836 ± 0.1 kcal/mol, respectively.

Consider “SAGGSAGGSAMKKLEYTIPVPPGTLSPEKVKELFKKKYPEYENKEIKVEFSPDGTVKITVIESAGGSAGGSA [r18_65_JUSTAS]”, for which the figures for the “folding stability dG unfold” value in series [1], in series [2] and in series [3] were 3.17 ± 0.037 kcal/mol, 2.38 ± 0.051 kcal/mol and 2.92 ± 0.066 kcal/mol, respectively.

Consider “SAGGSAGGSAMKRVTLTFPSTGKTLTFDFTTEEDIEAAIKAALGPEVDPAKVTVTVLPPGAASAGGSAGGSA [r18_350_JUSTAS]”, for which the “folding stability dG unfold” value came to 2.62 ± 0.054 kcal/mol in series [1], 1.04 ± 0.054 kcal/mol in series [2] and 2.12 ± 0.3 kcal/mol in series [3].

With “SAGGSAGGSAMKTITLKDEKGNPLTAEVEKLPNGTIKITITKPGGEKTTYTIPPGEKITLPVSAGGSAGGSA [r18_115_JUSTAS]”, the “folding stability dG unfold” value in series [1] worked out at 2.98 ± 0.05 kcal/mol; in series [2] it was 2.34 ± 0.16 kcal/mol; in series [3], 2.77 ± 0.14 kcal/mol.

Turning to “SAGGSAGGSAMKVTVEEEELEVEPGETVKIKIRLPNGEEREFSLEDLKKLPPGEAEVEIERVSAGGSAGGSA [r18_394_TrROS_Hall]”, the “folding stability dG unfold” value in series [1] was determined as 0.729 ± 0.13 kcal/mol; in series [2] it was 0.583 ± 0.076 kcal/mol; in series [3], 0.785 ± 0.18 kcal/mol.

In the case of “SAGGSAGGSAMKVVSVEAAPGQTVTVRVLVEDPETQELYELEVTVTVTAPEPVTVELPPEASAGGSAGGSAG [r3_271_TrROS_Hall]”, the “folding stability dG unfold” value in series [1] turned out to be 2.47 ± 0.082 kcal/mol; in series [2] it was 1.89 ± 0.15 kcal/mol; in series [3], 2.03 ± 0.23 kcal/mol.

“SAGGSAGGSAMLLPSEEEAEKAAAELRAKTGWRVTVEKVGTGEDGTVVYRLTVVPPDLPLESAGGSAGGSAG [r3_59_JUSTAS]”: the “folding stability dG unfold” value in series [1] worked out at 3.234 ± 0.019 kcal/mol; in series [2], 2.84 ± 0.048 kcal/mol; in series [3], 3.12 ± 0.06 kcal/mol.

For “SAGGSAGGSAMLVALVRVPGTDKPVVARLPREIGREAAEELLREAFPDAEVLEIVEVPEEELSAGGSAGGSA [r18_242_TrMRF]”, the “folding stability dG unfold” value in series [1] worked out at 1.712 ± 0.012 kcal/mol; in series [2], 0.447 ± 0.031 kcal/mol; in series [3], 1.42 ± 0.031 kcal/mol.

With “SAGGSAGGSAMPVIELTIKVKTKEEAKKAAEELAKKLEEEFGLKVEVEYDEETKEVKVKIYPSAGGSAGGSA [r18_368_TrROS_Hall]”, the figures for the “folding stability dG unfold” value in series [1], in series [2] and in series [3] were 1.79 ± 0.068 kcal/mol, 2.25 ± 0.12 kcal/mol and 2.07 ± 0.089 kcal/mol, respectively.

On to “SAGGSAGGSAMQPIRIKITLYNPDNGDTRTYTVEVPDPNMSLDAIAKQLPPGYRIKKVSIMSAGGSAGGSAG [r3_80_TrROS]”, for which the “folding stability dG unfold” value in series [1] worked out at 3.815 ± 0.033 kcal/mol; in series [2], 3.38 ± 0.13 kcal/mol; in series [3], 3.68 ± 0.13 kcal/mol.

As for “SAGGSAGGSAMQRVEIYFPGLKKVFTKPFKSLEEVEEAVKELLGPEYNPEKVEIKILPENAESAGGSAGGSA [r18_350_TrMRF]”, the entries for the “folding stability dG unfold” value in series [1], in series [2] and in series [3] were 1.5 ± 0.14 kcal/mol, 0.912 ± 0.054 kcal/mol and 1.27 ± 0.17 kcal/mol, respectively.

For “SAGGSAGGSAMRPVSFTLVSTETAPNGVKVTKYVLTEPTGPAREYTSTNLLVEGSSLTDLSSAGGSAGGSAG [r3_261_JUSTAS]”, the “folding stability dG unfold” value in series [1] is 0.239 ± 0.1 kcal/mol; in series [2], 0.0443 ± 0.084 kcal/mol; in series [3], 0.202 ± 0.087 kcal/mol.

As for “SAGGSAGGSAMTFTVNSEEEVEKLKKLGGVTKTSEEPGKVTLSAPNLPPELQEKIKEVIQKSAGGSAGGSAG [r3_398_JUSTAS]”, the “folding stability dG unfold” value was 0.434 ± 0.27 kcal/mol in series [1], -0.548 ± 0.2 kcal/mol in series [2] and -0.111 ± 0.26 kcal/mol in series [3].

Take “SAGGSAGGSAMTIEELAKKGYEIRIVGPDGKVRTFKVGESLEEIAEKLGLAPGAKIEIRKVSAGGSAGGSAG [r3_216_TrROS_Hall]”: the “folding stability dG unfold” value in series [1] came to 2.07 ± 0.027 kcal/mol; in series [2], 1.48 ± 0.024 kcal/mol; in series [3] it was 1.88 ± 0.049 kcal/mol.

In the case of “SAGGSAGGSAMTIEQIANELAKKLGVDIKVVVTYENGEKKEYRPDELKNIPPGPFTVEFYTDSAGGSAGGSA [r18_394_TrMRF]”, the “folding stability dG unfold” value in series [1] worked out at 3.71 ± 0.1 kcal/mol; in series [2], 3.01 ± 0.096 kcal/mol; in series [3], 3.51 ± 0.15 kcal/mol.

“SAGGSAGGSAMTIEVTVPPEVPEEEAAERVARALRELFPIPEIKVSVERRPDGIIKVTVEGGSAGGSAGGSA [r18_1_TrMRF]”: the “folding stability dG unfold” value in series [1] amounted to 0.902 ± 0.052 kcal/mol; in series [2], 0.81 ± 0.04 kcal/mol; in series [3], 0.888 ± 0.1 kcal/mol.

Consider “SAGGSAGGSAMTITITGLSPEQIEEAAKALGATVTFDKETKTVTITVSPEQLEKLKELLEKSAGGSAGGSAG [r3_354_TrROS_Hall]”, for which the “folding stability dG unfold” value in series [1] was determined as 3.58 ± 0.12 kcal/mol; in series [2], 3.51 ± 0.14 kcal/mol; in series [3], 3.58 ± 0.18 kcal/mol.
